Reference: the supplement of paper PMC9170038

Experiments:
MS2 coat protein [1] = assay: apparent KD of MS2 coat protein; higher = weaker reporter binding; settings: Eterna round: R101
Description: (§1)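 RNA-MaP: designed FMN/MS2 RNA switches (84 nt design region) are transcribed on-chip within common flanks and titrated with SNAP-549-labelled MS2 coat protein (about 1-3000 nM) in 100 mM Tris pH 7.5, 80 mM KCl, 4 mM MgCl2, without or with 200 uM FMN. Median apparent KD per design; activation ratio = KD,OFF / KD,ON.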

MS2 coat protein [2] = assay: apparent KD of MS2 coat protein; designed switch direction (-1 OFF switch, 1 ON switch): -1; higher = weaker reporter binding; settings: Eterna round: R98
Description: as §1

MS2 coat protein [3] = assay: apparent KD of MS2 coat protein; designed switch direction (-1 OFF switch, 1 ON switch): 1; higher = weaker reporter binding; settings: Eterna round: R98
Description: as §1

Sequence	apparent KD of MS2 coat protein (MS2 coat protein [1]; input ligand: FMN 200 uM)	apparent KD of MS2 coat protein (MS2 coat protein [1]; input ligand: none)	also measured
AUCAGCUCGUCAGGAUAUACGUCACUGCGUCAGCAGUGUGGUAAGAUCACAUGAGGAUCACCCAUGUAGAAGGGACGAGCUGAU [#MiniMS2Turnoff - Ex NG2 #82] (puzzle (switch architecture): Exclusion NG 2)	0.273 µM	0.0137 µM	–
UAAAUAAAUCCUAGAGGAUCACCCUAGGAUAUCACCGUCGAGGUGCCAUAAUGGCACCUCGACGGUGAGAAGGAGGGUAAUAAA [#SharedSequence - SLExNG3: 1-1] (puzzle (switch architecture): Small Loop Exclusion NG 3)	0.0293 µM	0.0138 µM	–
CGGGAUACGAAGGGCGAAAGCCCACAUGAGGAUCACCCAUGUAGAAGGCGGGCCGCAACGCGGCCCGAGGAUAUACAGUAUCCA [#my 5th design] (puzzle (switch architecture): Inverted Exclusion NG 3)	0.0105 µM	0.00572 µM	–
AAUAAUCUUUAAGGAUAUGACUCCGAAACGGAGUCAGAAGGUGAGGAUCACCCAUCUAGCUCAGGGUCGAAAGACCCUGAGCAA [#SharedSequence - ExNG1-11] (puzzle (switch architecture): Exclusion NG 1)	0.101 µM	0.0496 µM	–
UGUUGUUACGCAGGAUAUUGCCAACAGGCGGUAGGAUAUCCGAAAGGAGAAGGAUCGCCAACAGGCGAGAAGGGCGGGUUAACA [pwkr exNG2 2xF7 2FMN.10.3]	–	–	apparent KD of MS2 coat protein (MS2 coat protein [2]; input ligand: FMN 200 uM): 0.0267 µM; apparent KD of MS2 coat protein (MS2 coat protein [2]; input ligand: none): 0.0213 µM
UUUUUUUUUUUUUACGCUUUGCGACGAGAAGGUACACAUGAGGAUCACCCAUGUCGAUUGGGAGGUAAGGAUAUUGGAUUGCGU [Inverted Small Loop Same State NG 3 Solution, Uracil-heavy] (puzzle (switch architecture): Inverted Small Loop Same State NG 3)	0.000483 µM	0.0184 µM	–
GGUGUUAACACAGGAUAUCUGCGUAAACAGCGCGGAGAAGGGUGGGUGACCAAGGACACAUGAGGAUCACCCAUGUACCCUUAA [Timadier] (puzzle (switch architecture): Same State NG 1)	0.184 µM	0.0727 µM	–
GUCACGGUUAAUUCCGUGACGCGCAAACCUUGAGGAUCACCCAAGGAUAUCGACGUCAAUGACGUCGAGAAGGUGGUUGAGCGC [#SharedSequence] (puzzle (switch architecture): Exclusion NG 3)	0.0956 µM	–	–
AGAGCCUCGUGAGGAUAUACAUGAGGAUCACCCAUGUAAUAGGAUGAACGGAGGAAACUCCGAAUGUAGAAGGCACGAGGCUCA [Exclusion NG 2/11-B1]	–	–	apparent KD of MS2 coat protein (MS2 coat protein [2]; input ligand: FMN 200 uM): 0.686 µM; apparent KD of MS2 coat protein (MS2 coat protein [2]; input ligand: none): 0.0745 µM
GUCAGCUCGUGAGGAUAUACAUCACUGCUUCGGCAGUGUAUUAAGAUAACAUGAGGAUCACCCAUGUAGAAGGCACGAGCUGAU [#MS2NeighbourBaseDeletion - ENG2/2-A2] (puzzle (switch architecture): Exclusion NG 2)	0.0085 µM	0.00549 µM	–
GGUCGACCUCAAGGAUAUGGACUGCAAAGCAGUCCAGAAGGUGAGGAUCACCCAUCUACGGUCAGGAAACUGACCGAUCGACCA [#SharedSequence - ExNG1-6] (puzzle (switch architecture): Exclusion NG 1)	0.914 µM	0.308 µM	–
CGCUCGCCGAGAGGAUAUGCAUUGGUGGGCGGUCCUGAACAUGAGGAUCACCCAUGUAUCAGUAAGCAGAAGGCUUGGUAGACG [Usesreed]	–	–	apparent KD of MS2 coat protein (MS2 coat protein [2]; input ligand: FMN 200 uM): 0.0165 µM; apparent KD of MS2 coat protein (MS2 coat protein [2]; input ligand: none): 0.0201 µM
GGUUGUUACGCAGGAUAUUGCCAACAGGCAGUAGGAUAUCCGAAAGGAGAAGGACCGCCAACAGGCGAGAAGGGCGGGUUAACC [pwkr exNG2 2xF7 2FMN.10.4]	–	–	apparent KD of MS2 coat protein (MS2 coat protein [2]; input ligand: FMN 200 uM): 0.0483 µM; apparent KD of MS2 coat protein (MS2 coat protein [2]; input ligand: none): 0.0354 µM
AAAGAUUUUCAAGGAUAUGACUCCGAAACGGAGUCAGAAGGUGAGGAUCACCCACCUAGCUCAGCGUCGAAAGACGCUGAGCAA [#SharedSequence ExNG1 - 27] (puzzle (switch architecture): Exclusion NG 1)	0.103 µM	0.0135 µM	–
AGACCUGCUCAGAAGGCGGGUGCGAGGCUGGAAACAGCCUCGAAUUAAAAUCUUCGAGGAUCACCCGAGGAUAUGAGCAGGUCA [#SharedSequence - IExNG2: 16] (puzzle (switch architecture): Inverted Exclusion NG 2)	0.019 µM	0.0542 µM	–
UAAAUAAAUCCUAGAGGAUCACCCUAGGAUAUGAGGCUGCACCUCGGAUAAUCCGAGGUGCAGCCUCAGAAGGAGGUUGAUAAA [#SharedSequence - SLExNG3: 6-2] (puzzle (switch architecture): Small Loop Exclusion NG 3)	0.0118 µM	0.0105 µM	–
UAUAUUUAGGCAGGAUAUACAUGUAUAUAUAAUUUUUUAUAUAUUAUUACAUGAGGAUCACCCAUGUAGAAGGGCCUUAUUAUA [LRO040_Exclusion NG 2]	–	–	apparent KD of MS2 coat protein (MS2 coat protein [2]; input ligand: FMN 200 uM): 0.0629 µM; apparent KD of MS2 coat protein (MS2 coat protein [2]; input ligand: none): 0.0512 µM
UAAAUAAAUCCUAGAGGAUCACCCUAGGAUAUGAGGCUGCACCUCGGAUAAUCCGAGGUGCAGCCUCAGAAGGAGGAAAAUAAA [#SharedSequence - SLExNG3: 4-2] (puzzle (switch architecture): Small Loop Exclusion NG 3)	0.00771 µM	0.00816 µM	–
ACAGGUCGUGAGAAGGCGUGUGGCACCGUCGAAAGACGGUGCAAUUAAAAUCUUCGAGGAUCACCCGAGGAUAUCACGACCUGA [#SharedSequence - IExNG2: 19] (puzzle (switch architecture): Inverted Exclusion NG 2)	0.0322 µM	0.0122 µM	–
AAAUAAAUCGAAGGAUAUGACCCUCGAGGUGACUAAAAGUCACCUCGAGGGUCAGAAGGUCGAGGAUCACCCGAUCUAAAUAAA [#SharedSequence SLExNG1: 2-1] (puzzle (switch architecture): Small Loop Exclusion NG 1)	0.259 µM	0.0162 µM	–
AAUAAUCAGGUAGGAUAUGCUCAGGAAUACUGAGCAGAAGGACUAGAAACCUGAGGAUCACCCAGGUAACUGGACCGGAAACGG [Same State NG1 - A3C, U17G Submission 6C]	–	–	apparent KD of MS2 coat protein (MS2 coat protein [3]; input ligand: FMN 200 uM): 0.0423 µM; apparent KD of MS2 coat protein (MS2 coat protein [3]; input ligand: none): 0.0811 µM
GUAGCAUACCGAGGAUAUUCAUACCGGAAACGGACAUGAGGAUCACCCAUGUAAAUUCUAAAUUGGGAGAAGGCGGAAUGCUAC [Xeonanis 75 6]	–	–	apparent KD of MS2 coat protein (MS2 coat protein [3]; input ligand: FMN 200 uM): 0.0466 µM; apparent KD of MS2 coat protein (MS2 coat protein [3]; input ligand: none): 0.41 µM
